# System: Escherichia coli TOP10
# Assay: shrunken log2 fold change of peptide-encoding DNA abundance (4.5 h post-induction vs induction); higher = less antimicrobial activity (less host growth inhibition)
# Settings: time post-induction: 4.5 h; library: site-saturation at positions 5, 18, 19, 20
# 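Note: peptides expressed intracellularly from a pBAD plasmid library in pooled LB shake-flask culture, induced with 0.3% L-arabinose, DNA abundance read by NGS, three biological replicates, DESeq2 with apeglm shrinkage.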
row,Sequence,shrunken log2 fold change
1,RRIRIRPPRLPRPRPRPAKDPRP,-0.268
2,RRIRWRPPRLPRPRPRPGPTPRP,0.487
3,RRIRNRPPRLPRPRPRPWMKPRP,-0.0173
4,RRIRHRPPRLPRPRPRPWDTPRP,-0.164
5,RRIRRRPPRLPRPRPRPRAEPRP,0.572
6,RRIRARPPRLPRPRPRPFPDPRP,0.262
7,RRIRCRPPRLPRPRPRPIDPPRP,-0.18
8,RRIRARPPRLPRPRPRPVACPRP,0.284
9,RRIRCRPPRLPRPRPRPKFHPRP,-0.498
10,RRIRGRPPRLPRPRPRPIVIPRP,-0.227
11,RRIRQRPPRLPRPRPRPWLLPRP,-0.151
12,RRIRDRPPRLPRPRPRPMIEPRP,0.0558
13,RRIRSRPPRLPRPRPRPIYMPRP,-0.533
14,RRIRNRPPRLPRPRPRPLVIPRP,-0.432
15,RRIRTRPPRLPRPRPRPFDQPRP,0.176
16,RRIRKRPPRLPRPRPRPPSEPRP,0.413
17,RRIRVRPPRLPRPRPRPKTEPRP,0.00185
18,RRIRIRPPRLPRPRPRPFICPRP,-0.304
19,RRIRNRPPRLPRPRPRPGNWPRP,0.0557
20,RRIRVRPPRLPRPRPRPMCIPRP,-0.047
21,RRIRCRPPRLPRPRPRPWNPPRP,0.228
22,RRIRFRPPRLPRPRPRPPHNPRP,0.0036
23,RRIRWRPPRLPRPRPRPAGTPRP,0.349
24,RRIRGRPPRLPRPRPRPNPHPRP,0.216
25,RRIRPRPPRLPRPRPRPRAIPRP,0.503

row,Sequence,shrunken log2 fold change
1,RRIRHRPPRLPRPRPRPPHMPRP,-0.115
2,RRIRERPPRLPRPRPRPKKWPRP,2.71
3,RRIRGRPPRLPRPRPRPQYGPRP,-0.008
4,RRIRMRPPRLPRPRPRPSSEPRP,-0.103
5,RRIRARPPRLPRPRPRPKYKPRP,-0.31
6,RRIRSRPPRLPRPRPRPTNDPRP,-0.162
7,RRIRLRPPRLPRPRPRPDQHPRP,-0.0962
8,RRIRKRPPRLPRPRPRPFKPPRP,0.0806
9,RRIRRRPPRLPRPRPRPRKYPRP,-0.33
10,RRIRIRPPRLPRPRPRPNFPPRP,-0.144
11,RRIRYRPPRLPRPRPRPNFHPRP,-0.612
12,RRIRERPPRLPRPRPRPLKCPRP,-0.11
13,RRIRPRPPRLPRPRPRPRNYPRP,0.000451
14,RRIRCRPPRLPRPRPRPNYWPRP,-0.326
15,RRIRRRPPRLPRPRPRPDCRPRP,0.0322
16,RRIRVRPPRLPRPRPRPWAGPRP,0.116
17,RRIRRRPPRLPRPRPRPHEHPRP,-0.153
18,RRIRIRPPRLPRPRPRPEQDPRP,0.0197
19,RRIRLRPPRLPRPRPRPHKSPRP,-0.399
20,RRIRTRPPRLPRPRPRPAVGPRP,0.532
21,RRIRPRPPRLPRPRPRPLALPRP,0.193
22,RRIRQRPPRLPRPRPRPYRTPRP,0.0218
23,RRIRWRPPRLPRPRPRPATNPRP,0.317
24,RRIRDRPPRLPRPRPRPAVFPRP,-0.0356
25,RRIRCRPPRLPRPRPRPMINPRP,-0.53

row,Sequence,shrunken log2 fold change
1,RRIRSRPPRLPRPRPRPAYSPRP,-0.0975
2,RRIRWRPPRLPRPRPRPPVFPRP,0.384
3,RRIRARPPRLPRPRPRPDINPRP,0.0789
4,RRIRRRPPRLPRPRPRPECVPRP,0.419
5,RRIRRRPPRLPRPRPRPAYSPRP,0.0936
6,RRIRMRPPRLPRPRPRPYPDPRP,-0.0456
7,RRIRPRPPRLPRPRPRPALNPRP,0.0983
8,RRIRNRPPRLPRPRPRPFGRPRP,-0.0535
9,RRIRERPPRLPRPRPRPHFCPRP,-0.117
10,RRIRMRPPRLPRPRPRPDNLPRP,-0.205
11,RRIRDRPPRLPRPRPRPLHIPRP,-0.0915
12,RRIRERPPRLPRPRPRPQEIPRP,0.0133
13,RRIRNRPPRLPRPRPRPYCKPRP,-0.258
14,RRIRGRPPRLPRPRPRPACCPRP,0.875
15,RRIRGRPPRLPRPRPRPPTFPRP,0.572
16,RRIRSRPPRLPRPRPRPQMEPRP,0.0832
17,RRIRKRPPRLPRPRPRPQETPRP,-0.0167
18,RRIRARPPRLPRPRPRPMARPRP,-0.132
19,RRIRKRPPRLPRPRPRPTLGPRP,1.72
20,RRIRMRPPRLPRPRPRPHCCPRP,-0.0266
21,RRIRMRPPRLPRPRPRPAVLPRP,0.0985
22,RRIRLRPPRLPRPRPRPLDAPRP,0.112
23,RRIRSRPPRLPRPRPRPQPIPRP,0.000168
24,RRIRCRPPRLPRPRPRPMTQPRP,-0.188
25,RRIRLRPPRLPRPRPRPLDWPRP,0.124

row,Sequence,shrunken log2 fold change
1,RRIRPRPPRLPRPRPRPTQPPRP,0.402
2,RRIRVRPPRLPRPRPRPARPPRP,0.486
3,RRIRERPPRLPRPRPRPRVKPRP,-0.207
4,RRIRARPPRLPRPRPRPTHMPRP,0.156
5,RRIRERPPRLPRPRPRPNWFPRP,-0.0607
6,RRIRLRPPRLPRPRPRPNLFPRP,-0.0622
7,RRIRLRPPRLPRPRPRPILMPRP,0.0581
8,RRIRWRPPRLPRPRPRPMIGPRP,0.384
9,RRIRDRPPRLPRPRPRPFPAPRP,0.0806
10,RRIRRRPPRLPRPRPRPLLPPRP,0.574
11,RRIRERPPRLPRPRPRPWTFPRP,-0.292
12,RRIRIRPPRLPRPRPRPACSPRP,-0.129
13,RRIRYRPPRLPRPRPRPHTLPRP,-0.959
14,RRIRRRPPRLPRPRPRPMQEPRP,-0.206
15,RRIRDRPPRLPRPRPRPELLPRP,0.011
16,RRIRNRPPRLPRPRPRPVRDPRP,0.177
17,RRIRQRPPRLPRPRPRPPQQPRP,0.497
18,RRIRHRPPRLPRPRPRPQGRPRP,0.027
19,RRIRMRPPRLPRPRPRPPKKPRP,1.01
20,RRIRPRPPRLPRPRPRPLEGPRP,0.179
21,RRIRFRPPRLPRPRPRPQKAPRP,0.0467
22,RRIRARPPRLPRPRPRPYWQPRP,0.046
23,RRIRSRPPRLPRPRPRPIAGPRP,-0.00669
24,RRIRFRPPRLPRPRPRPCTQPRP,-0.549
25,RRIRLRPPRLPRPRPRPGAVPRP,0.375

row,Sequence,shrunken log2 fold change
1,RRIRPRPPRLPRPRPRPSAPPRP,0.017
2,RRIRRRPPRLPRPRPRPMWMPRP,0.0619
3,RRIRFRPPRLPRPRPRPCSGPRP,-0.427
4,RRIRTRPPRLPRPRPRPYSEPRP,-0.212
5,RRIRKRPPRLPRPRPRPRRTPRP,0.443
6,RRIRCRPPRLPRPRPRPVDCPRP,-0.2
7,RRIRERPPRLPRPRPRPNIKPRP,-0.788
8,RRIRMRPPRLPRPRPRPDDCPRP,0.681
9,RRIRMRPPRLPRPRPRPYCEPRP,-0.34
10,RRIRCRPPRLPRPRPRPSLYPRP,-0.518
11,RRIRMRPPRLPRPRPRPMGCPRP,0.0612
12,RRIRMRPPRLPRPRPRPCYRPRP,0.035
13,RRIRYRPPRLPRPRPRPETFPRP,-0.0918
14,RRIRHRPPRLPRPRPRPPSHPRP,-0.139
15,RRIRIRPPRLPRPRPRPTMSPRP,-0.124
16,RRIRYRPPRLPRPRPRPPRLPRP,0.0944
17,RRIRGRPPRLPRPRPRPVNVPRP,0.0488
18,RRIRWRPPRLPRPRPRPCTVPRP,-0.438
19,RRIRSRPPRLPRPRPRPKSCPRP,0.61
20,RRIRARPPRLPRPRPRPDYPPRP,-0.0306
21,RRIRWRPPRLPRPRPRPTPEPRP,0.711
22,RRIRGRPPRLPRPRPRPSGEPRP,0.598
23,RRIRQRPPRLPRPRPRPTPEPRP,0.0617
24,RRIRMRPPRLPRPRPRPWCVPRP,0.0904
25,RRIRDRPPRLPRPRPRPAEAPRP,0.314
